The text below walks through data of patent US20240132578A1.

Holding throughout (test): cell-based or functional assay
The target in assay [1] is HIV-1 JR-CSF Env G324A (HIV-1 isolate JR-CSF) (UniProt P20871).
In assay [2] the target is aMLV envelope protein (negative control pseudovirus).
In assay [3] the target is HIV-1 92BR020 envelope protein (Env) on pseudotyped virus (HIV-1 strain 92BR020).
The target of assay [4] is HIV-1 SF162 envelope protein (Env) on pseudotyped virus (HIV-1 isolate SF162) (UniProt P19550).
For assay [5], the target named is aMLV envelope on pseudotyped virus (negative control) (aMLV).
The target in assay [6] is HIV-1 JR-CSF Env N276A (HIV-1 (isolate JR-CSF)) (UniProt P20871).
Assay [7] has as its target HIV-1 92RW020 envelope glycoprotein (Env), on pseudovirus (HIV-1 isolate 92RW020 (clade A)).
Assay [8] has as its target HIV-1 JR-CSF envelope glycoprotein (Env), wild type, on pseudovirus (HIV-1 isolate JR-CSF (clade B)) (UniProt P20871).
Assay [9] deals with HIV-1 Env of isolate 94KE105 (pseudovirus) (HIV-1).
The target of assay [10] is HIV-1 Env of isolate APV_17 (subtype B), on pseudovirus (HIV-1).
The target of assay [11] is HIV-1 Env of isolate APV_6 (subtype B), on pseudovirus (HIV-1).
The target of assay [12] is HIV-1 Env of isolate CAAN.A2 (subtype B), on pseudovirus (HIV-1).
In assay [13] the target is HIV-1 Env of isolate MG RM-C-022 (HIV-1).
Assay [14] addresses HIV-1 Env of isolate MG RM-C-023 (HIV-1).
Assay [15] concerns the target HIV-1 Env of isolate MG RM-D-011 (subtype D) (HIV-1).
Assay [16] deals with HIV-1 Env of isolate MG RM-D-016 (subtype D) (HIV-1).
The target of assay [17] is HIV-1 Env of isolate MG RM-D-019 (subtype D) (HIV-1).
Assay [18] concerns the target HIV-1 Env of isolate MG RM-D-020 (subtype D) (HIV-1).
Assay [19] deals with HIV-1 Env of isolate MG RM-D-026 (subtype D) (HIV-1).
The target of assay [20] is HIV-1 Env of isolate MG RM-D-028 (subtype D) (HIV-1).
For assay [21], the target named is HIV-1 Env of isolate MGRM-A-010 (pseudovirus) (HIV-1).
Assay [22] has as its target HIV-1 Env of isolate MGRM-A-013 (pseudovirus) (HIV-1).
Assay [23] has as its target HIV-1 Env of isolate MGRM-C-024 (clade C pseudovirus) (HIV-1).
Assay [24] deals with HIV-1 Env of isolate MGRM-C-026 (clade C pseudovirus) (HIV-1).
In assay [25] the target is HIV-1 Env of isolate MGRM-C-027 (clade C pseudovirus) (HIV-1).
The target of assay [26] is HIV-1 Env of isolate MGRM-Chronic-B-002 (subtype B), on pseudovirus (HIV-1).
Assay [27] addresses HIV-1 Env of isolate MGRM-Chronic-B-004 (subtype B), on pseudovirus (HIV-1).
The target in assay [28] is HIV-1 Env of isolate MGRM-Chronic-B-010 (subtype B), on pseudovirus (HIV-1).
Assay [29] has as its target HIV-1 Env of isolate MGRM-Chronic-B-012 (subtype B), on pseudovirus (HIV-1).
The target in assay [30] is HIV-1 Env of isolate MGRM-Chronic-B-017 (subtype B), on pseudovirus (HIV-1).
For assay [31], the target named is HIV-1 Env of isolate MGRM-F1-004 (subtype F) (HIV-1).
Assay [32] concerns the target HIV-1 Env of isolate MGRM-F1-012 (subtype F) (HIV-1).
Assay [33] has as its target HIV-1 Env of isolate MGRM-F1-013 (subtype F) (HIV-1).
The target in assay [34] is HIV-1 Env of isolate MGRM-F1-016 (subtype F) (HIV-1).
The target in assay [35] is HIV-1 envelope glycoprotein (Env) of isolate 92RW008 (HIV-1).
For assay [36], the target named is HIV-1 envelope glycoprotein (Env) of isolate 92WR009 (HIV-1).
Assay [37] deals with HIV-1 envelope glycoprotein (Env) of isolate 92WR020 (HIV-1).
Assay [38] has as its target HIV-1 envelope glycoprotein (Env) of isolate 92WR024 (HIV-1).
Assay [39] deals with HIV-1 envelope glycoprotein (Env) of isolate 93UG077 (HIV-1).
The target in assay [40] is HIV-1 envelope glycoprotein (Env) of isolate MG RM-A-003 (HIV-1).
In assay [41] the target is HIV-1 envelope glycoprotein (Env) of isolate MG RM-A-009 (HIV-1).
Assay [42] addresses HIV-1 JR-CSF Env S387A (HIV-1 isolate JR-CSF) (UniProt P20871).

Sequence of 1443_C16 (PG16) (TCN-116) (antibody) (VH): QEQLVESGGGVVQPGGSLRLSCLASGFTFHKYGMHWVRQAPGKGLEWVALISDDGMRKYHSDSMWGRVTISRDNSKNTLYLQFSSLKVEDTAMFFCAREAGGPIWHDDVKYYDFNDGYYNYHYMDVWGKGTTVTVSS
Sequence of 1443_C16 (PG16) (TCN-116) (antibody) (VL): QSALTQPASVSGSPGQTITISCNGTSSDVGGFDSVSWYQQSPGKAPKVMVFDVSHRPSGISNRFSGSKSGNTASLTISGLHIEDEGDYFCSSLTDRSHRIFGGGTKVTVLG

In turn, 4858_P08 (PGT-123) (antibody) showed a Fold IC50 increase relative to wild-type in assay [1] of 14.5 fold. Moreover, in [2], the IC50, pseudovirus neutralization is > 10 µg/mL; the IC80 (pseudovirus neutralization) is > 10 µg/mL; the IC90 (pseudovirus neutralization) is > 10 µg/mL; the IC95 (pseudovirus neutralization) is > 10 µg/mL.

In the case of 1495_C14 (PGC14) (antibody), the IC50, Neutralizing Antibody Assay, Virus/Ab Incubation 1 hour in assay [3] was 1.17 µg/mL; in [4] it was 0.0069 µg/mL; in assay [5], > 50 µg/mL. In addition, the IC50, Neutralizing Antibody Assay, Virus/Ab Incubation 18 hour in assay [3] was 0.244 µg/mL; in assay [4], < 0.0025 µg/mL; in [5] it was > 50 µg/mL.

In the case of 5136_H01 (PGT-131) (antibody), in assay [6], the Fold IC50 increase relative to wild-type stood at 0.8 fold.

With 1443_C16 (PG16) (TCN-116) (antibody), the IC50, Neutralizing Antibody Assay, Virus/Ab Incubation 1 hour in assay [3], in [4] and in assay [5] was > 50 µg/mL throughout. Moreover, the IC50, Neutralizing Antibody Assay, Virus/Ab Incubation 18 hour in assay [3], in assay [4] and in assay [5] was > 50 µg/mL each time. The IC50 (ug/ml), pseudovirus neutralization, TZM-bl assay in assay [7] stood at 0.09 µg/mL; in assay [8] it was 0.001 µg/mL.

Consider PGV04 (antibody), for which the IC50 (µg/mL), pseudovirus neutralization in assay [9] stood at 2.98 µg/mL; in assay [13], 18.3 µg/mL; in assay [14], 0.128 µg/mL; in assay [15] it was 0.025 µg/mL; in assay [16], 0.201 µg/mL; in [17] it was 0.35 µg/mL. The IC50 (µg/mL), pseudovirus neutralization in assay [18] was 0.097 µg/mL; in assay [19], 1.76 µg/mL; in [20] it was 1.01 µg/mL; in assay [21], 0.205 µg/mL; in assay [22], 0.086 µg/mL; in assay [31] it was 0.58 µg/mL. Also, the IC50 (µg/mL), pseudovirus neutralization in [32] was found to be 0.25 µg/mL; in assay [33], 0.084 µg/mL; in assay [34], 0.268 µg/mL. The IC50, single-round pseudovirus neutralization was 0.309 µg/mL in assay [10]; 24.2 µg/mL in [11]; 2.26 µg/mL in assay [12]; 0.142 µg/mL in assay [26]; 0.047 µg/mL in assay [27]; 0.744 µg/mL in assay [28]. For the same substance, the IC50, single-round pseudovirus neutralization in assay [29] is > 50 µg/mL; in assay [30] it was 0.129 µg/mL. The IC50 (µg/mL), single-round pseudovirus neutralization in assay [23] is > 50 µg/mL; in [24], 0.303 µg/mL; in assay [25] it was 2.76 µg/mL. Moreover, the half-inhibitory concentration (IC50) was 0.014 µg/mL in [35]; 0.108 µg/mL in assay [36]; 0.055 µg/mL in assay [37]; 0.31 µg/mL in [38]; 0.083 µg/mL in [39]; 0.128 µg/mL in [40]. The substance further gave an IC50 in assay [41] of 0.033 µg/mL.

For 5343_B08 (PGT-135) (antibody), the Fold IC50 increase relative to wild-type in assay [6] is 2.5 fold; in assay [42], 0.6 fold.

As for 5147_N06 (PGT-130) (antibody), the values for the Fold IC50 increase relative to wild-type in assay [1] and in assay [42] were > 50 fold and 0.7 fold, respectively.

Turning to 5141_B17 (PGT-126) (antibody), in assay [39], the Neutralization IC80 was determined as 0.102 µg/mL, the Neutralization IC90 is 0.238 µg/mL, the Neutralization IC95 amounted to 0.577 µg/mL and the neutralization IC50 is 0.0256 µg/mL. Also, in [2], the Neutralization IC80 is > 10 µg/mL, the Neutralization IC90 is > 10 µg/mL, the Neutralization IC95 was > 10 µg/mL and the neutralization IC50 is > 10 µg/mL.

Turning to 1496_C09 (PG9) (TCN-109) (antibody), the IC50 (ug/ml), pseudovirus neutralization, TZM-bl assay in assay [7] amounted to 0.1 µg/mL; in assay [8], 0.006 µg/mL. Moreover, the IC50 (µg/mL), pseudovirus neutralization came to 37.9 µg/mL in assay [9]; 0.346 µg/mL in [13]; 0.614 µg/mL in assay [14]; 0.071 µg/mL in [15]; 0.098 µg/mL in assay [16]; 0.038 µg/mL in [17]. Moreover, the IC50 (µg/mL), pseudovirus neutralization in assay [18] is 1.67 µg/mL; in [19] it was 23.7 µg/mL; in assay [20], 20.2 µg/mL; in assay [21], 0.022 µg/mL; in [22], 0.122 µg/mL; in assay [31], 0.175 µg/mL. For the same substance, the IC50 (µg/mL), pseudovirus neutralization turned out to be 0.023 µg/mL in [32], 1.25 µg/mL in [33] and 0.518 µg/mL in [34]. Also, the IC50, single-round pseudovirus neutralization is 34.8 µg/mL in assay [10]; 0.181 µg/mL in assay [11]; 19.3 µg/mL in [12]; 3.44 µg/mL in assay [26]; 0.533 µg/mL in [27]; 0.004 µg/mL in [28]. Besides, the IC50, single-round pseudovirus neutralization stood at 0.2 µg/mL in assay [29] and 0.688 µg/mL in assay [30]. In addition, the IC50 (µg/mL), single-round pseudovirus neutralization in assay [23] is 0.227 µg/mL; in assay [24] it was 0.06 µg/mL; in assay [25] it was 5.36 µg/mL. Moreover, the IC50 in [35] was 0.006 µg/mL; in assay [36] it was 0.05 µg/mL; in [37] it was 0.141 µg/mL; in assay [38], 0.258 µg/mL; in assay [40], 1.94 µg/mL; in assay [41], 0.023 µg/mL.
